The values below come from patent US20230391850A1.

The target of experiment [1] is human polyclonal IgG (Gammanorm) (human). The experiment is described as follows: Biacore SPR, remaining IgG binding capacity after 100 NaOH cycles as a ratio to the reference ligand SEQ ID NO: 12.
For experiment [2] the target is unchanged. The experiment is described as follows: Biacore SPR, ligand on CM5 chip, 1 mg/ml human polyclonal IgG flowed over; signal left after 100 cycles of 10 min in 0.5 M NaOH. (Surface plasmon resonance follows binding to a sensor surface in real time, without labels.)
For experiment [3] the target is unchanged. The experiment is described as follows: Biacore SPR, reference ligand on CM5 chip, 1 mg/ml human polyclonal IgG; signal left after 100 cycles of 10 min in 0.5 M NaOH (run beside SEQ ID NO 8).
Experiment [4] has the same target. In words: Biacore SPR, reference ligand on CM5 chip, 1 mg/ml human polyclonal IgG; signal left after 100 cycles of 10 min in 0.5 M NaOH (run beside SEQ ID NO 9).

With “Zvar(Q9A, N11R, Q40V, A42K, N43A, L44I)1 (designed binder)”, the Capacity relative to Ref in experiment [1] stood at 1.14. The same substance came in with a Capacity after 100 cycles (remaining IgG binding capacity) in experiment [2] of 74%.

“Zvar(Q9A,N11E,Q40V,A42K,N43A,L44Di (SEQ ID NO: 12) (designed binder)”: the figures for the Reference capacity after 100 cycles (remaining IgG binding capacity) in experiment [3] and in experiment [4] were 65% and 64%, respectively.

Consider “Zvar(Q9W, N11E, Q40V, A42K, N43A, L44I)1 (designed binder)”, for which the Capacity relative to Ref in experiment [1] stood at 1.09. This substance had a Capacity after 100 cycles (remaining IgG binding capacity) in experiment [2] of 70%.
